According to publication PMC7387800:

Tests used:
[1] = target: VqmA-FLAG (Vibrio cholerae); assay: non-reducing SDS-PAGE with anti-FLAG immunoblot (disulfide-linked dimer); cells treated 1 h with 25 μM DPO, in the presence or absence of O2; lysate boiled in SDS-PAGE buffer without BME
[2] = target: VqmA-FLAG (Vibrio cholerae)
[3] = tested on: 6xHis-VqmA C134A (Vibrio cholerae C6706?); assay: EMSA
[4] = tested on: 6xHis-VqmA WT (Vibrio cholerae C6706?); assay: EMSA

Row | Substance | percent of Holo-VqmA with the intermolecular C134-C134 disulfide bond [1] | stoichiometry N [1] | vqmR-lacZ reporter activity in ΔvqmA Δtdh V. cholerae carrying pvqmA-FLAG, with 25 μM DPO, with against without DTT [2] | binding signal (fold reduction vs DTT-treated P2) [3] | binding signal (fold more potent than diamide-treated P2) [4]
1 | VqmA-FLAG (natural protein) | 40 to 50% | 2 | 6 fold | – | –
2 | vqmR promoter DNA (PvqmR) | – | – | – | 4 | 2
